Experimental data taken from patent US7713932B2, “Calcitonin drug-oligomer conjugates, and uses thereof” (Biocon Limited, priority 2001, dated 2010).
Several values for one entry are separate records, joined by “and”; a condition that tells them apart may be missing. Identical values can stand only once. Each block holds one molecule with its values, some of them ahead of it.

How the values were obtained:
Format in all cases: in vitro ADME
[1] = system: Chymotrypsin; test: Enzymatic stability: 0.5 U/mL chymotrypsin digest; details: for % Remaining Following 0.5 U/mL Chymotrypsin Digest: replicate columns; for % Remaining, Control: Control tube (1 mM HCl, no enzyme)
Protocol: (§1) Compounds, supplied as lyophilized powders, are resuspended in 10 mM phosphate buffer pH 7.4 and then submitted for concentration determination by HPLC. The phosphate buffer is used to create a solution with a pH that is optimum for activity of each particular gut enzyme. Aliquots of the compound thus prepared are transferred to 1.7 mL microcentrifuge tubes and shaken in a 37° C. water bath for 15 minutes to allow compounds to equilibrate to temperature. After 15 minutes, 2 μL of the appropriate concentrated gut enzyme is added to each tube to achieve the final concentration desired. Chymotrypsin and trypsin are resuspended in 1 mM HCl. Also, as a control, compounds are treated with 2 μL of 1 mM HCl. Immediately following additions, 100 μL of sample is removed from the control tube and quenched with either 25 μL of chymotrypsin/trypsin quenching solution (1:11% TFA:Isopropanol). This sample will serve as T=0 min. A sampling procedure is repeated at various time intervals depending on the gut enzyme used. Chymotrypsin has 15, 30 and 60 minute samples. Trypsin has 30, 60, 120 and 180 minute samples. Once all points have been acquired, a final sample is removed from the control tube to make sure that observed degradation is not temperature or buffer related. The chymotrypsin and trypsin samples may be collected directly into HPLC vials. RP-HPLC (acetonitrile gradient) is used to determine AUC for each sample and % degradation is calculated based from the T=0 min control. The results are provided below in Tables 1 to 4.

[2] = Enzymatic stability: 0.5 U/mL chymotrypsin digest; details: chymotrypsin 0.5 U/mL, pH 7.4, Non-Formulated, replicate columns, read-out: % Remaining Following 0.5 U/mL Chymotrypsin Digest
Protocol: as §1

[3] = Enzymatic stability: 1 U/mL trypsin digest; details: trypsin 1 U/mL, pH 7.4, Non-Formulated, replicate columns, read-out: % Remaining following 1 U/mL Trypsin Digest
Protocol: as §1

[4] = system: Trypsin; test: Enzymatic stability: 1 U/mL trypsin digest; details: for % Remaining, Control: Control tube (1 mM HCl, no enzyme); for % Remaining following 1 U/mL Trypsin Digest: Non-Formulated, replicate columns
Protocol: as §1

SMILES: COCCOCCOCCOCCOCCOCCOCCOCCCCCCCC(=O)NCCCC[C@H](NC(=O)CNC(=O)[C@H](CC(C)C)NC(=O)[C@@H](NC(=O)[C@@H]1CSSC[C@H](N)C(=O)N[C@@H](CO)C(=O)N[C@@H](CC(N)=O)C(=O)N[C@@H](CC(C)C)C(=O)N[C@@H](CO)C(=O)N[C@@H]([C@@H](C)O)C(=O)N1)C(C)C)C(=O)N[C@@H](CC(C)C)C(=O)N[C@@H](CO)C(=O)N[C@@H](CCC(N)=O)C(=O)N[C@@H](CCC(=O)O)C(=O)N[C@@H](CC(C)C)C(=O)N[C@@H](Cc1c[nH]cn1)C(=O)N[C@@H](CCCCNC(=O)CCCCCCCOCCOCCOCCOCCOCCOCCOCCOC)C(=O)N[C@@H](CC(C)C)C(=O)N[C@@H](CCC(N)=O)C(=O)N[C@H](C(=O)N[C@@H](Cc1ccc(O)cc1)C(=O)N1CCC[C@H]1C(=O)N[C@@H](CCCNC(=N)N)C(=O)N[C@H](C(=O)N[C@@H](CC(N)=O)C(=O)N[C@H](C(=O)NCC(=O)N[C@@H](CO)C(=O)NCC(=O)N[C@H](C(=O)N1CCC[C@H]1C(N)=O)[C@@H](C)O)[C@@H](C)O)[C@@H](C)O)[C@@H](C)O
- % Remaining Following 0.5 U/mL Chymotrypsin Digest ([1]; Buffered Formulation, 15 min): 88% (2×) and 86%
- % Remaining Following 0.5 U/mL Chymotrypsin Digest ([1]; Buffered Formulation, 30 min): 73% and 88% and 86%
- % Remaining Following 0.5 U/mL Chymotrypsin Digest ([1]; Buffered Formulation, 60 min): 61% and 69% and 84%
- % Remaining, Control ([1]; Buffered Formulation, 60 min): 116% and 104% and 101%
- % Remaining, Control ([1]; Non-Formulated, 60 min): 104% and 88% and 97% and 103%
- remaining at 0.25 h ([2]; 15 min): 63%
- remaining at 0.5 h ([2]; 30 min): 34%
- remaining at 0.5 h ([3]; 30 min): 87%
- remaining at 1 h ([3]; 60 min): 78%
- remaining at 2 h ([3]; 120 min): 72%
- remaining at 3 h ([3]; 180 min): 81%
- % Remaining, Control ([4]; 60 min): 103% and 100%
- % Remaining, Control ([4]; 120 min): 106% and 105% and 99%
- % Remaining, Control ([4]; 180 min): 104% and 99%

- % Remaining Following 0.5 U/mL Chymotrypsin Digest ([1]; Buffered Formulation, 15 min): 59% and 91% and 92%
- % Remaining Following 0.5 U/mL Chymotrypsin Digest ([1]; Buffered Formulation, 30 min): 54% and 86% and 87%
- % Remaining Following 0.5 U/mL Chymotrypsin Digest ([1]; Buffered Formulation, 60 min): 55% and 82% and 85%
- % Remaining, Control ([1]; Buffered Formulation, 60 min): 102% and 98% and 103%
- % Remaining Following 0.5 U/mL Chymotrypsin Digest ([1]; Non-Formulated, 15 min): 62% and 35%
- % Remaining Following 0.5 U/mL Chymotrypsin Digest ([1]; Non-Formulated, 30 min): 30% and 26% and 40% and 13% and 42%
- % Remaining Following 0.5 U/mL Chymotrypsin Digest ([1]; Non-Formulated, 60 min): 1.6% and 5% and 12% and 1%
- % Remaining following 1 U/mL Trypsin Digest ([4]; 30 min): 80% and 50%
- % Remaining following 1 U/mL Trypsin Digest ([4]; 60 min): 66% and 28% and 69% and 76%
- % Remaining following 1 U/mL Trypsin Digest ([4]; 120 min): 44% and 7% and 46% and 59%
- % Remaining following 1 U/mL Trypsin Digest ([4]; 180 min): 2% and 31% and 46%
SMILES: CC(C)C[C@H](NC(=O)[C@H](CCCCN)NC(=O)CNC(=O)[C@H](CC(C)C)NC(=O)[C@@H](NC(=O)[C@@H]1CSSC[C@H](N)C(=O)N[C@@H](CO)C(=O)N[C@@H](CC(N)=O)C(=O)N[C@@H](CC(C)C)C(=O)N[C@@H](CO)C(=O)N[C@@H]([C@@H](C)O)C(=O)N1)C(C)C)C(=O)N[C@@H](CO)C(=O)N[C@@H](CCC(N)=O)C(=O)N[C@@H](CCC(=O)O)C(=O)N[C@@H](CC(C)C)C(=O)N[C@@H](Cc1c[nH]cn1)C(=O)N[C@@H](CCCCN)C(=O)N[C@@H](CC(C)C)C(=O)N[C@@H](CCC(N)=O)C(=O)N[C@H](C(=O)N[C@@H](Cc1ccc(O)cc1)C(=O)N1CCC[C@H]1C(=O)N[C@@H](CCCNC(=N)N)C(=O)N[C@H](C(=O)N[C@@H](CC(N)=O)C(=O)N[C@H](C(=O)NCC(=O)N[C@@H](CO)C(=O)NCC(=O)N[C@H](C(=O)N1CCC[C@H]1C(N)=O)[C@@H](C)O)[C@@H](C)O)[C@@H](C)O)[C@@H](C)O [Salmon Calcitonin]
